B9: Human papillomavirus 16 L2 (other)
chain: MRHKRSAKRTKRASATQLYKTCKQAGTCPPDIIPKVEGKTIAVQILQYGSMGVFFGGLGIGTGSGTGGRTGYIPLGTRPPTATDTLAPVRPPLTVDPVGPSDPSIVSLVEETSFIDAGAPTSVPSIPPDVSGFSITTSTDTTPAILDINNTVTTVTTHNNPTFTDPSVLQPPTPAETGGHFTLSSSTISTHNYEEIPMDTFIVSTNPNTVTSSTPIPGSRPVARLGLYSRTTQQVKVVDPAFVTTPTKLITYDNPAYEGIDVDNTLYFSSNDNSINIAPDPDFLDIVALHRPALTSRRTGIRYSRIGNKQTLRTRSGKSIGAKVHYYYDLSTIDPAEEIELQTITPSTYTTTSHAASPTSINNGLYDIYADDFITDTSTTPVPSVPSTSLSGYIPANTTIPFGGAYNIPLVSGPDIPINITDQAPSLIPIVPGSPQYTIIADAGDFYLHPSYYMLRKRRKRLPYFFSDVSLAA
notes: also called HPV 16 L2; cbe_251737

Experiments:
[1] = target: T1, Human Papillomavirus 1a E2 (Human Papillomavirus 1a, UniProt P03118 1-401); assay: Y2H; INT ID 410
T1 construct: also called HPV 1a E2; cbe_251917
T1 sequence: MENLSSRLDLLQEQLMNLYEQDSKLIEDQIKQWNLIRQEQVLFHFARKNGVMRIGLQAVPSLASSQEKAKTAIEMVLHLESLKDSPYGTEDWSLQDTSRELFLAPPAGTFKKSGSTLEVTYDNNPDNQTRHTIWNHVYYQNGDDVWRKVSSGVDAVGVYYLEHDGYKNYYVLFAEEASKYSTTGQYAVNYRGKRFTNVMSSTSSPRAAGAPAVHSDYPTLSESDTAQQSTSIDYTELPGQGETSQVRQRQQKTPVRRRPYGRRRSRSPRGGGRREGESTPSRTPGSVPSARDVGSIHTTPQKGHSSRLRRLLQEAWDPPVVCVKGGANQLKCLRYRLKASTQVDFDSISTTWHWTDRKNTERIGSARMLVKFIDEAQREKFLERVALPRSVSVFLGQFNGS

[2] = target: T2, Human papillomavirus 16 L1 (Human papillomavirus 16, UniProt P03101 1-505); assay: Y2H; INT ID 197
T2 construct: also called HPV 16 L1; cbe_251784
T2 sequence: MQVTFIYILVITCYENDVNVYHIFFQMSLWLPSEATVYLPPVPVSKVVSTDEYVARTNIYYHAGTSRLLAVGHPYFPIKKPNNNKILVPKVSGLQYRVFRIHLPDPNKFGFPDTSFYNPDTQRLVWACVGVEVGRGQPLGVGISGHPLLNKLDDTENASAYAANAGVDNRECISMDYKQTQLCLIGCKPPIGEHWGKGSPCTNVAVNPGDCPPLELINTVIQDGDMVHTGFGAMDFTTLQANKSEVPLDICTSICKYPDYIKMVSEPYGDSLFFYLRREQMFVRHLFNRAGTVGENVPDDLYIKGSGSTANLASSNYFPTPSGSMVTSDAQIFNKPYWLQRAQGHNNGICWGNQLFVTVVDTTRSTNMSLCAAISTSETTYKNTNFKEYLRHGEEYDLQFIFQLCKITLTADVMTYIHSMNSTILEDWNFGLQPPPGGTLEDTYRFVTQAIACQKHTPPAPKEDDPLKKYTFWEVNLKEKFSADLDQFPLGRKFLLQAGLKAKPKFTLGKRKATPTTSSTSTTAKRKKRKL

[3] = target: B9; assay: Y2H; INT ID 188
[4] = target: T1, Human Papillomavirus 1a E2; assay: Y2H; INT ID 383
[5] = target: T1, Human Papillomavirus 1a E2; assay: Y2H; INT ID 415
[6] = target: B9; assay: Y2H; INT ID 191
[7] = target: T2, Human papillomavirus 16 L1; assay: Y2H; INT ID 196
[8] = target: T1, Human Papillomavirus 1a E2; assay: Y2H; INT ID 416
[9] = target: T3, signal-induced proliferation-associated 1 like 1 (human, UniProt O43166 1-1804); assay: Y2H; INT ID 184
T3 construct: also called KIAA0440; cbe_3056756
T3 sequence (O43166 whole entry): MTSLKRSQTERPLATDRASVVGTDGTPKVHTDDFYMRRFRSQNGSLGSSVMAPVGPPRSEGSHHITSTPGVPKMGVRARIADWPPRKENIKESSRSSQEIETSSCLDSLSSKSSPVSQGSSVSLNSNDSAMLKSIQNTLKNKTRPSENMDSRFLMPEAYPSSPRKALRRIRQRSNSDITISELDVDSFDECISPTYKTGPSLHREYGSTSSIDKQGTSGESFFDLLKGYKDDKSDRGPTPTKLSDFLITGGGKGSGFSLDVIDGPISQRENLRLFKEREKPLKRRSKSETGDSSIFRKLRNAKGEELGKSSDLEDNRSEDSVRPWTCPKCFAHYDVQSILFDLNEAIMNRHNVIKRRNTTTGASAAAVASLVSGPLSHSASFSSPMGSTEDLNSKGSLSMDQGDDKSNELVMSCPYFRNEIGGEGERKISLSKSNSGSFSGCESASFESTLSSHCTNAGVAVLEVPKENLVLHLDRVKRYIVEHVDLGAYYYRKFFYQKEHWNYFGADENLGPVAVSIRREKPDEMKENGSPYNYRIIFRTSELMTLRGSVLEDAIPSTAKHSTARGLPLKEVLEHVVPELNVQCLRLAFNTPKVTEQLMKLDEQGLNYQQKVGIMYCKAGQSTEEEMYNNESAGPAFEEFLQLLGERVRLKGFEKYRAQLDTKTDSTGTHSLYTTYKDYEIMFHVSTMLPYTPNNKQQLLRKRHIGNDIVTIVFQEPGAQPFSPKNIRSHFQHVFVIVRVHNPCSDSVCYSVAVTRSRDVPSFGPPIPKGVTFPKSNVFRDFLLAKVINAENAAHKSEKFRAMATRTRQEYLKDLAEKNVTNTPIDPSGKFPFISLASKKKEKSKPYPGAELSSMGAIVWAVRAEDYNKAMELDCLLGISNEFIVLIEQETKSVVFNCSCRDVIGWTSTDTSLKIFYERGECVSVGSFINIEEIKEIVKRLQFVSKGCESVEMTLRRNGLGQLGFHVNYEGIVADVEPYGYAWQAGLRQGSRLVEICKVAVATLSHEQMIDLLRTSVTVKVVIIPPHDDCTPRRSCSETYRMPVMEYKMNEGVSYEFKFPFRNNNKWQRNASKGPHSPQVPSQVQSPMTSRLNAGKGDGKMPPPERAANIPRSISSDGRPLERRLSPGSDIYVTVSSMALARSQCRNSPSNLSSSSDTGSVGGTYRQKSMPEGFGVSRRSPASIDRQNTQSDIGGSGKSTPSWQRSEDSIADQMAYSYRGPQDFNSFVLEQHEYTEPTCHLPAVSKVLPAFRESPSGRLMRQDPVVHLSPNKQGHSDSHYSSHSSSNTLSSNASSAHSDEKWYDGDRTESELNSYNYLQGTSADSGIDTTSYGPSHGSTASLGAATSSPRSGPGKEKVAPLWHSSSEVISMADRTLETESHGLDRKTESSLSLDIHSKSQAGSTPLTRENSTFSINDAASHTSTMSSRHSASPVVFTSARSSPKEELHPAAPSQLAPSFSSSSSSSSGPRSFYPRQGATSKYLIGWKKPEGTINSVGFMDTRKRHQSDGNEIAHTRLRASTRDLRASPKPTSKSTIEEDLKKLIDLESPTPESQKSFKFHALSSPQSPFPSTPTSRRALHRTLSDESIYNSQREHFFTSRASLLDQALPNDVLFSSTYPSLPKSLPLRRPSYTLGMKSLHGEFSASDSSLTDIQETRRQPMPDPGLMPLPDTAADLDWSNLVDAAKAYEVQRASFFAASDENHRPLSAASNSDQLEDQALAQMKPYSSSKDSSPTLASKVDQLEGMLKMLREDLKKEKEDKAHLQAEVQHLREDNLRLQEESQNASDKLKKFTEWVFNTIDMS

[10] = target: T4, gbh_al121903 (human, UniProt Q9Y6D5 1145-1785); assay: Y2H; INT ID 185
T4 construct: also called cbe_3473488
T4 sequence: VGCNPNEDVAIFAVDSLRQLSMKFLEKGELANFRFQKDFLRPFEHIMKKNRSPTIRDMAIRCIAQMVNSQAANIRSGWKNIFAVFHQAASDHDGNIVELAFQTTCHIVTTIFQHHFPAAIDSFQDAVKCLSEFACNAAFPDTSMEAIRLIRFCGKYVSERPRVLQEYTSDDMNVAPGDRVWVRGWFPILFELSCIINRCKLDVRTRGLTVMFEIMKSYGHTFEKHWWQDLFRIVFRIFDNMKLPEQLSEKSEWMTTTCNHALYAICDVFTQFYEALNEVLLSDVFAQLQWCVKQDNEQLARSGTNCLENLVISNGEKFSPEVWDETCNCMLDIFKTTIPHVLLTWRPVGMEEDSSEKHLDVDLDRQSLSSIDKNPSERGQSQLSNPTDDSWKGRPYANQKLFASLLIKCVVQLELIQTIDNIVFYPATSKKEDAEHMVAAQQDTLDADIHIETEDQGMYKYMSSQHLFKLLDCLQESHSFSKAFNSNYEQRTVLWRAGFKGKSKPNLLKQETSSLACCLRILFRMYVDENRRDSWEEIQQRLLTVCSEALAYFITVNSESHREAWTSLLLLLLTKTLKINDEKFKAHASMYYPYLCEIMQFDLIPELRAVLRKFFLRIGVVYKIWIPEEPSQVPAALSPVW

[11] = target: T5, KIAA1389 protein (human, UniProt Q9P2F8 219-1722); assay: Y2H; INT ID 187
T5 construct: also called cbe_3663966
T5 sequence (Q9P2F8 other isoform, or with tags, fused parts or gaps limits assumed): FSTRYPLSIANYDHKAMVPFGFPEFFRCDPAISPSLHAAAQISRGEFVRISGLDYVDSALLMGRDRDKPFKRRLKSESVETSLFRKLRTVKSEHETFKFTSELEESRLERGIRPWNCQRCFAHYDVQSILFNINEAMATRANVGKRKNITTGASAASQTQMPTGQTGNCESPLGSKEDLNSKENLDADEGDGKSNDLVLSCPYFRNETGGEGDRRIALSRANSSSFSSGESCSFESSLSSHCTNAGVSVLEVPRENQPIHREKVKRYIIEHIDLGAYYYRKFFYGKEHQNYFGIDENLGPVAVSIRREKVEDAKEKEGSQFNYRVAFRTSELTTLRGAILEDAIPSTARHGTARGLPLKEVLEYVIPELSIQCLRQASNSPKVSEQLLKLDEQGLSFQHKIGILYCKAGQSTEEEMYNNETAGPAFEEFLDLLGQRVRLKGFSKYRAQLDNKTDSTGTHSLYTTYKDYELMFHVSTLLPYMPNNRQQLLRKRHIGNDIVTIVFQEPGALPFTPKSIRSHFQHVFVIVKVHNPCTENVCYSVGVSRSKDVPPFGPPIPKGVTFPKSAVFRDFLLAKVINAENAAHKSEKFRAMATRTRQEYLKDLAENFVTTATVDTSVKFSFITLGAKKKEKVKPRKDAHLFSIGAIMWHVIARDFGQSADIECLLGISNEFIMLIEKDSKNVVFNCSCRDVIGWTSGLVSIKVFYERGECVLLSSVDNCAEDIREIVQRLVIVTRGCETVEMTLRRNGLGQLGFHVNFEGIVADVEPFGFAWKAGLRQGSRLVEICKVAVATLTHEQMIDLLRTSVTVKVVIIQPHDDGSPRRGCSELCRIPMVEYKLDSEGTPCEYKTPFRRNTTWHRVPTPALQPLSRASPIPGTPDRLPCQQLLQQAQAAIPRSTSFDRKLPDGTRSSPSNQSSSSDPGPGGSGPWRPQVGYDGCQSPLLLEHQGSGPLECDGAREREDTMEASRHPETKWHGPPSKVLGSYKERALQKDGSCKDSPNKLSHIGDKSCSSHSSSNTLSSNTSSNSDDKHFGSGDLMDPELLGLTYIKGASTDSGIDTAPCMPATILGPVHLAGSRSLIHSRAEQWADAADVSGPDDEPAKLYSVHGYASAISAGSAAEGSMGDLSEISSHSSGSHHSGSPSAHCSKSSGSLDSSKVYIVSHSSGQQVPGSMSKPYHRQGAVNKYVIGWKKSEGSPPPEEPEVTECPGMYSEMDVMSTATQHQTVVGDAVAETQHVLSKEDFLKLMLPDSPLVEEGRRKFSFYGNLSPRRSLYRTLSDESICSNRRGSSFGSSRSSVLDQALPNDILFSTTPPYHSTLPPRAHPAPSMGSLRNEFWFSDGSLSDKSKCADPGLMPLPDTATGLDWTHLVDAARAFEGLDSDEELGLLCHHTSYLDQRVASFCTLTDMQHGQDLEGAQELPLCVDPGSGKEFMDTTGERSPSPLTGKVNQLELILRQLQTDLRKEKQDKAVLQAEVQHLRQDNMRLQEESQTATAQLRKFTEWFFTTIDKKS

[12] = target: B9; assay: Y2H; INT ID 189

B1: Prey2777 (other)
chain: MNPVPHWGEVFLLVGGEGEHLASQGTTPARDHRVGISPASQQAQPESWRRRQRDKGVDPEKAPSLTRQSQNPPSLTAPLGMPSACSCLPCGPAPEAAIILAGPPTALTVLPKGTGLKKSKRLLLESLMRRRIAHLKWGLPRRILESYFLFNFLGSCSLTLAGARLSGLNTGQELQAQQERYCEAQGSPPGLKSPERFQRVQRPDRKSSKLPIQARALERNRPHMSEPIKHFHPA
notes: also called FLJ23584; hypothetical protein FLJ23584
B1: binds [1].

B2: crystallin, alpha B (other)
chain: MDIAIHHPWIRRPFFPFHSPSRLFDQFFGEHLLESDLFPTSTSLSPFYLRPPSFLRAPSWFDTGLSEMRLEKDRFSVNLDVKHFSPEELKVKVLGDVIEVHGKHEERQDEHGFISREFHRKYRIPADVDPLTITSSLSSDGVLTVNGPRKQVSGPERTIPITREEKPAVTAAPKK
notes: also called CRYAB; cbe_4281271
B2: binds [2].

B3: chemokine-like factor 1 (other)
chain: MDNVQPKIKHRPFCFSVKGHVKMLRLALTVTSMTFFIIAQAPEPYIVITGFEVTVILFFILLYVLRLDRLMKWLFWPLLDIINSLVTTVFMLIVSVLALIPETTTLTVGGGVFALVTAVCCLADGALIYRKLLFNPSGPYQKKPVHEKKEVL
notes: also called HSPC224; CKLF1
B3: binds [3].

B4: low molecular mass ubiquinone-binding protein (9.5 kD) (other)
chain: MGREFGNLTRMRHVISYSLSPFEQRAYPHVFTKGIPNVLRRIRESFFRVVPQFVVFYLIYTWGTEEFERSKRRIQLPMKMTNEQRIRMTVPCL
notes: also called QP-C; cbe_1710
B4: binds [4].

B5: hypothetical protein MGC3222 (other)
chain: VVSPDSIHSVAPENEGRLVHIIGALRTSKLLSDPNYGVHLPAVKLRRHVEMYQWVETEESREYTEDGQVKKETRYSYNTEWRSEIINSKNFDREIGHNNPSAMAVESFTATAPFVQIGRFFLSSGLIDKVDNFKSLSLSKLEDPHVDIIRRGDFFYHSENPKYPEVGDLRVSFSYAGLSGDDPDLGPAHVVTVIARQRGDQLVPFSTKSGDTLLLLHHGDFSAEVSAVPYSYGGGTSMSFLPSSGYLIRSHYQGS
notes: also called cbe_3583511
B5: binds [5].

B6: KIAA0276 (other)
chain: MHSDAAAVNFQLNSHLSTLANIHKIYHTLNKLNLTEDIGQDDHQTGSLRSCSSSDCFNKVMPPRKKRRPASGDDLSAKKSRHDSMYRKYDSTRIKTEEEAFSSKRCLEWFYEYAGTDDVVGPEGMEKFCEDIGVEPENVVMLVLAWKLDAQNMGYFTLQEWLKGMTSLQCDTTEKLRNTLDYLRSFLNDSTNFKLIYRYAFDFAREKDQRSLDINTAKCMLGLLLGKIWPLFPVFHQFLEQSKYKVINKDQWCNVLEFSRTINLDLSNYDEDGAWPVLLDEFVEWYKDKQMS
notes: also called cbe_4270335
B6: binds [6].

B7: HCDI protein (other)
chain: MGWRRKRVPQRGRKAPPPQLHGNINNLYFPIRWRDRLHWDSPNPAAECQRHEVTLVSRKPGPGRITWDELAASGLPSCDAAVNLAGENILNPLRRWNETFQKEVLGSRLETTQLLAKAITKAPQPPKAWVLVTGVAYYQPSLTAEYDEDSPGGDFDFFSNLVTKWEAAARLPGDSTRQVVVRSGVVLGRGGGAMGHMLLPFRLGLGGPIGSGHQFFPWIHIGDLAGILTHALEANHVHGVLNGVAPSSATNAEFAQTLGAALGRRAFIPLPSAVVQAVFGRQRAIMLLEGQKVIPQRTLATGYQYSFPELGAALKEIVA
notes: also called cbe_1505425
B7: binds [7].

B8: eukaryotic translation initiation factor 2B, subunit 2 beta, 39 kDa (other)
chain: MPGSAAKGSELSERIESFVETLKRGGGPRSSEEMARETLGLLRQIITDHRWSNAGELMELIRREGRRMTAAQPSETTVGNMVRRVLKIIREEYGRLHGRSDESDQQESLHKLLTSGGLNEDFSFHYAQLQSNIIEAINELLVELEGTMENIAAQALEHIHSNEVIMTIGFSRTVEAFLKEAARKRKFHVIVAECAPFCQGHEMAVNLSKAGIETTVMTDAAIFAVMSRVNKVIIGTKTILANGALRAVTGTHTLALAAKHHSTPLIVCAPMFKLSPQFPNEEDSFHKFVAPEEVLPFTEGDILEKVSVHCPVFDYVPPELITLFISNIGGNAPSYIYRLMSELYHPDDHVL
notes: also called EIF2B2; cbe_3625721
B8: binds [8].

B9: binds [9]; binds [10]; binds [11].

B10: Rab coupling protein (other)
chain: MSLMVSAGRGLGAVWSPTHVQVTVLQARGLRAKGPGGTSDAYAVIQVGKEKYATSVSERSLGAPVWREEATFELPSLLSSGPAAAATLQLTVLHRALLGLDKFLGRAEVDLRDLHRDQGRRKTQWYKLKSKPGKKDKERGEIEVDIQFMRNNMTASMFDLSMKDKSRNPFGKLKDKIKGKNKDSGSDTASAIIPSTTPSVDSDDESVVKDKKKKSKIKTLLSKSNLQKTPLSQSMSVLPTSKPEKVLLRPGDFQSQWDEDDNEDESSSASDVMSHKRTASTDLKQLNQVNFTLPKKEGLSFLGGLRSKNDVLSRSNVCINGNHVYLEQPQPTGEIKDSSPSSSPSPKGFRKKTLFSSTENLAAGSWKEPAEGGGLSTDRDVSESSTKDSLKSMTLPTYRPAPLISGDLREKMAPANSEATKEAKESKKPESRRSSLLSLMTGKKDVAKGSEGENLLTVPGREKEGMLMGVKPGEDASGPAEDLVRRSEKDTAAVVSRQGSSLNLFEDVQITEPEAEPESKSEPRPPISSPRAPQTRAVKPRLHPVKPMNATATKVANCSLGTATIISENLNNEVMMKKYSPSDPAFAYAQLTHDELIQLVLKQKETISKKEFQVRELEDYIDNLLVRVMEETPNILRIPTQVGKKAGKM
notes: also called Hs.30289; RCP
B10: binds [12].
